Patent publication US20040152079A1 (Scripps Research, published 2004)

B1: type A IL-8 receptor (receptor, UniProt P25024 1-350, looked up)
chain: MSNITDPQMWDFDDLNFTGMPPADEDYSPCMLETETLNKYVVIIAYALVFLLSLLGNSLVMLVILYSRVGRSVTDVYLLNLALADLLFALTLPIWAASKVNGWIFGTFLCKVVSLLKEVNFYSGILLLACISVDRYLAIVHATRTLTQKRHLVKFVCLGCWGLSMNLSLPFFLFRQAYHPNNSSPVCYEVLGNDTAKWRMVLRILPHTFGFIVPLFVMLFCYGFTLRTLFKAHMGQKHRAMRVIFAVVLIFLLCWLPYNLVLLADTLMRTQVIQESCERRNNIGRALDATEILGFLHSCLNPIIYAFIGQNFRHGFLKILAMHGLVSKEFLARHRVTSYTSSSVNVSSNL
notes: whole, on cells; also called IL-8 receptor type A; CXCR1
B2: human mini TyrRS (ligand)
chain: MGDAPSPEEKLHLITRNLQEVLGEEKLKEILKERELKIYWGTATTGKPHVAYFVPMSKIADFLKAGCEVTILFADLHAYLDNMKAPWELLELRVSYYENVIKAMLESIGVPLEKLKFIKGTDYQLSKEYTLDVYRLSSVVTQHDSKKAGAEVVKQVEHPLLSGLLYPGLQALDEEYLKVDAQFGGIDQRKIFTFAEKYLPALGYSKRVHLMNPMVPGLTGSKMSSSEEESKIDLLDRKEDVKKKLKKAFCEPGNVENNGVLSFIKHVLFPLKSEFVILRDEKWGGNKTYTAYVDLEKDFAAEVVHPGDLKNSVEVALNKLLDPIREKFNTPALKKLASAAYPDPSKQKPMAKGPAKNSEPEEVILEHHHHHH
modifications: Radioiodinated (125I) where used as the labelled ligand; iodinated residues not stated. Runs as a homodimer on gel filtration.
notes: Recombinant, made in E. coli

Assays:
human mini TyrRS = biological target: B2; assay: radioligand binding (Scatchard) to RBL2H3 cells transfected with the type A IL-8 receptor
Method: Following incubation, cells were separated from unbound radioactivity as described herein.
Untransfected RBL2H3 cells express neither the type A nor type B receptors.

[1] = biological target: PMN receptor for mini TyrRS (on human PMNs) (human); assay: Scatchard analysis of ^125I-mini TyrRS binding to human PMNs at 4 C
Excerpt: The supernatant was aspirated, and the cell sediment was resuspended using EcoLite (ICN Biomedicals, Irvine, Calif.) and analyzed in a scintillation counter.

Row | Kd (human mini TyrRS) | Kd [1] | Binder
1 | 8 nM |  | B1
2 |  | 21 nM | B2
